According to US20250270343A1 (Alector, published 2025):
Positions count from the first letter of the chain named. Values belong to the binder of their own block, whether it stands above or below them.

Target: T1, mouse GPNMB endogenously expressed on B16F10 cells (mouse, UniProt Q99P91 23-574)
T1 construct: whole, on cells; also called moGPNMB
T1 sequence (looked up): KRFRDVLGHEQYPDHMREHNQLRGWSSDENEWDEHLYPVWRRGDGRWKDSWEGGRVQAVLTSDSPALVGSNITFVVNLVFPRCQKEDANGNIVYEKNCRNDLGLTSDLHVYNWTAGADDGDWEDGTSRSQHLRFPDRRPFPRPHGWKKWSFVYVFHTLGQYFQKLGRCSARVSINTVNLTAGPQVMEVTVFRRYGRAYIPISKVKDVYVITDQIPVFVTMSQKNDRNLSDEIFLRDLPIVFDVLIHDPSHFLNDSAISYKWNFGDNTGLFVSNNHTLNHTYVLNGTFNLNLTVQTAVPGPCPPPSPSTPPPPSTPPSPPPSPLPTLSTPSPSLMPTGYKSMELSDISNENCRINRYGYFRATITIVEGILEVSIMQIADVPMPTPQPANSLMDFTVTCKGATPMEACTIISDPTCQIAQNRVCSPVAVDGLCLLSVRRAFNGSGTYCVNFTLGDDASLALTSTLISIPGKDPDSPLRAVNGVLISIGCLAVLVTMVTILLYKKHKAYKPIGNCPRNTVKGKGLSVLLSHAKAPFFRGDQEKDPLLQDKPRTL
Assay: FACS titration, B16F10 cells
Description: Cell-based binding measurements were also performed to measure the apparent affinities of anti-GPNMB antibodies of the present disclosure to cell-surface expressed GPNMB. Serial dilutions of the monoclonal anti-GPNMB antibodies were added to 100,000 Freestyle293-huGPNMB+ or B16F10 cells and allowed to achieve binding equilibrium at 4° C. After addition of fluorescently labeled secondary antibody and brief washing steps, MFI values as a function of titrated antibody concentration was recorded via FACS analysis. Curves were fit using nonlinear regression analysis with Graphpad Prism 6 software.

- EC50: 76.5 nM
B1: anti-GPNMB antibody GPN-42 (antibody, human IgG1, V domains shown)
VH: DVKLVESGEDLVKPGGSLKLSCAASGFTFSSYAMSWVRQTPEKRLEWVAYISSGGDYIYYADTVKGRFTISRDNARNTLYLQMSSLKSEDTAMYYCTRDRYYDYDVRDYYTMDYWGQGTSVTVSS
VL: DVMMTQTPLSLPVSLGDQASISCRSSQSLVHSNGNTYLHWFLQKPGQSPKLLIFRVSNRFSGVPDRFSGRGSGTDFTLKISRVEAEDLGVYFCSQTTHVPRTFGGGTTLEIK
notes: chimeric

- EC50: 2.62 nM
B2: anti-GPNMB antibody GPN-41 (antibody, human IgG1, V domains shown)
VH: QLQLQQSGTEVVKPGASVKIPCKASGYAFSSYWMNWVKQRPGKGLEWIGQIYPGDGDTNDNGKFEGKATLTVDKSSNTAYIQLSSLTSEDSAVYFCARSPLHLRGSMDYWGQGTSVTVSS
VL: SIVMTQTPKFLLVSAGDRVTITCKASQSVSNDVAWFQQKPGQSPELLIYSASNRYTGVPDRFTASGYGTDFTFTISAVQAEDLAVYFCQQNYYSPFTFGGGTRLEIK
notes: chimeric

- EC50: 3.23 nM
B3: anti-GPNMB antibody GPN-65 (antibody, human IgG1, V domains shown)
VH: B2 VH
VL: B2 VL with A64G, A77T
notes: chimeric

- EC50: 5.38 nM
B4: anti-GPNMB antibody GPN-38 (antibody, human IgG1, V domains shown)
VH: QVQLQQPGAELVRPGTSVRLSCKASGYTFTSYWIHWVKQRPGRGLEWIGVIDPSDSYTNYNQQFNVKATLTVDTSSSAAYMQLSSLTSEDSAVYYCARGLITAVNWYFDVWGTGTTVTVSS
VL: DIQMTQSPASLSTSVGEIVTITCRASENIYSYLTWYQQKQGKSPQLLVYNAKTLAEGVPSRFSGSGSGTQFSLKINSLQPEDFGTYYCQHHYGTPLTFGSGTKLEIK
notes: chimeric

- EC50: 36.2 nM
B5: anti-GPNMB antibody GPN-43 (antibody, human IgG1, V domains shown)
VH: EVQLQQSGPELVKPGASVKISCKASGYTFTDYYMNWVRQSHGKSLEWIGDINPYHGGSTYNQKIKVKATLTVDKSSSTAYMELRSLTSEDSAVYYCARNWPYFDYWGQGTTLTVSS
VL: DIQMTQSPASLSASVGETVTITCRASENIYSFLVWYQQKQGKSPQLLVYNAKTLAEGVPSRFSGSGSGTQFSLKISSLQPEDFGSYYCQHHFGTPPYTFGGGTKLEIK
notes: chimeric

- EC50: 1.6 nM
B6: anti-GPNMB antibody GPN-52 (antibody, human IgG1, V domains shown)
VH: DVQLQESGPGLVKPSQTVFLTCTVTGISITTGNYRWSWIRQFPGNKLEWIGYIYYSGTITYNPSLTSRITITRDTPKNEFFLEMNSLTAEDTATYYCARDLTHWYFDVWGTGTTVTVSS
VL: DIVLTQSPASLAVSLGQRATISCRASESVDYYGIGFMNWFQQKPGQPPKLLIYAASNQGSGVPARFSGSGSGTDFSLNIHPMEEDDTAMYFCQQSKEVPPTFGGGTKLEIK
notes: chimeric

- EC50: 2.29 nM
B7: anti-GPNMB antibody GPN-35 (antibody, human IgG1, V domains shown)
VH: EVQLVESGGGSVRPGRSLKLSCAAAGFTFSDYYMTWVRQAPTKGLEWVASINHDGGGTYYRDSVKGRFTISRDNARSSLYLQMDSLRSEDTGTYYCTTRAGWHWGQGVMVTVSS
VL: DIQMTQSPASLSASLGETVSIECLASEDIYNYLTWYQQKPGKSPQVLIYSASGLQDGVPSRFSGSGSGRQYSLKINGLESEDAATYFCLQDSEYPLTFGSGTKLEIK
notes: chimeric
